T1: human IGFBP-1 (human, UniProt P08833 26-259)
T1 sequence (looked up): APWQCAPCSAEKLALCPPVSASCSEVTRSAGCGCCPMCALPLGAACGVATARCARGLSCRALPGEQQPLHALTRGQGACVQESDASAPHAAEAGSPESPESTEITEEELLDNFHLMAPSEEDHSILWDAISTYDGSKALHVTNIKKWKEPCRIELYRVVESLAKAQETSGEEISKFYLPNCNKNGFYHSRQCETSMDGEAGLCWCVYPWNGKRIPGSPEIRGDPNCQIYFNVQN

B1: 23D3.6 (peptide)
peptide displayed on M13 phage as a fusion to g8p: TNWFFVCESGHQDICWLAEE
modifications: not fully specified (bridges); cysteine pairing not given here; also: displayed on phage as g8p fusion
notes: whole phage particle in the assay; also called peptide-phage clone 23D3.6 (g8 display)
B2: BP1-20 (peptide)
peptide: EARVCRAGPLQWLCEKYF-NH2
modifications: disulfide 5-14; N-terminus assumed
SMILES: CC(C)C[C@@H]1NC(=O)[C@H](Cc2c[nH]c3ccccc23)NC(=O)[C@H](CCC(N)=O)NC(=O)[C@H](CC(C)C)NC(=O)[C@@H]2CCCN2C(=O)CNC(=O)[C@H](C)NC(=O)[C@H](CCCNC(=N)N)NC(=O)[C@@H](NC(=O)[C@@H](NC(=O)[C@H](CCCNC(=N)N)NC(=O)[C@H](C)NC(=O)[C@@H](N)CCC(=O)O)C(C)C)CSSC[C@@H](C(=O)N[C@@H](CCC(=O)O)C(=O)N[C@@H](CCCCN)C(=O)N[C@@H](Cc2ccc(O)cc2)C(=O)N[C@@H](Cc2ccccc2)C(N)=O)NC1=O
B3: BP-24 (peptide)
peptide: WFKTVCYEWEDEVQCYTLEEG-NH2
modifications: disulfide 6-15; N-terminus assumed
SMILES: CC(C)C[C@H](NC(=O)[C@@H](NC(=O)[C@H](Cc1ccc(O)cc1)NC(=O)[C@@H]1CSSC[C@H](NC(=O)[C@@H](NC(=O)[C@@H](NC(=O)[C@H](CCCCN)NC(=O)[C@H](Cc2ccccc2)NC(=O)[C@@H](N)Cc2c[nH]c3ccccc23)[C@@H](C)O)C(C)C)C(=O)N[C@@H](Cc2ccc(O)cc2)C(=O)N[C@@H](CCC(=O)O)C(=O)N[C@@H](Cc2c[nH]c3ccccc23)C(=O)N[C@@H](CCC(=O)O)C(=O)N[C@@H](CC(=O)O)C(=O)N[C@@H](CCC(=O)O)C(=O)N[C@@H](C(C)C)C(=O)N[C@@H](CCC(N)=O)C(=O)N1)[C@@H](C)O)C(=O)N[C@@H](CCC(=O)O)C(=O)N[C@@H](CCC(=O)O)C(=O)NCC(N)=O
notes: also called peptide of phage clone 4D3.5
B4: BP-23 (peptide)
peptide: ELDGWVCIKVGEQNLCYLAEG-NH2
modifications: disulfide 7-16; N-terminus assumed
SMILES: CC[C@H](C)[C@@H]1NC(=O)[C@@H](NC(=O)[C@@H](NC(=O)[C@H](Cc2c[nH]c3ccccc23)NC(=O)CNC(=O)[C@H](CC(=O)O)NC(=O)[C@H](CC(C)C)NC(=O)[C@@H](N)CCC(=O)O)C(C)C)CSSC[C@@H](C(=O)N[C@@H](Cc2ccc(O)cc2)C(=O)N[C@@H](CC(C)C)C(=O)N[C@@H](C)C(=O)N[C@@H](CCC(=O)O)C(=O)NCC(N)=O)NC(=O)[C@H](CC(C)C)NC(=O)[C@H](CC(N)=O)NC(=O)[C@H](CCC(N)=O)NC(=O)[C@H](CCC(=O)O)NC(=O)CNC(=O)[C@H](C(C)C)NC(=O)[C@H](CCCCN)NC1=O
notes: also called peptide of phage clone 4C3.2
B5: BP3-39 (peptide)
peptide: SEEVCWPVAEWYLCN-NH2
modifications: disulfide 5-14; N-terminus assumed
SMILES: CC(C)C[C@@H]1NC(=O)[C@H](Cc2ccc(O)cc2)NC(=O)[C@H](Cc2c[nH]c3ccccc23)NC(=O)[C@H](CCC(=O)O)NC(=O)[C@H](C)NC(=O)[C@H](C(C)C)NC(=O)[C@@H]2CCCN2C(=O)[C@H](Cc2c[nH]c3ccccc23)NC(=O)[C@@H](NC(=O)[C@@H](NC(=O)[C@H](CCC(=O)O)NC(=O)[C@H](CCC(=O)O)NC(=O)[C@@H](N)CO)C(C)C)CSSC[C@@H](C(=O)N[C@@H](CC(N)=O)C(N)=O)NC1=O
B6: BP3-40 (peptide)
peptide: Ac-SEEVCWPVAEWYLCN-NH2
modifications: disulfide 5-14
SMILES: CC(=O)N[C@@H](CO)C(=O)N[C@@H](CCC(=O)O)C(=O)N[C@@H](CCC(=O)O)C(=O)N[C@H](C(=O)N[C@H]1CSSC[C@@H](C(=O)N[C@@H](CC(N)=O)C(N)=O)NC(=O)[C@H](CC(C)C)NC(=O)[C@H](Cc2ccc(O)cc2)NC(=O)[C@H](Cc2c[nH]c3ccccc23)NC(=O)[C@H](CCC(=O)O)NC(=O)[C@H](C)NC(=O)[C@H](C(C)C)NC(=O)[C@@H]2CCCN2C(=O)[C@H](Cc2c[nH]c3ccccc23)NC1=O)C(C)C

Results on 25 molecules are retold here after patent publication US20090011988A1 (Genentech, published 2009).

Positions of bridges follow the written chain, without caps; N, C: chain ends. No end group written: not given here.

A word on the Kd: it is the constant that tells how readily two partners part at equilibrium. Higher therefore signals lower affinity. For orientation: IC50 means the concentration that inhibits the measured activity by half.

T2 sequence (P17936 28-291 limits assumed): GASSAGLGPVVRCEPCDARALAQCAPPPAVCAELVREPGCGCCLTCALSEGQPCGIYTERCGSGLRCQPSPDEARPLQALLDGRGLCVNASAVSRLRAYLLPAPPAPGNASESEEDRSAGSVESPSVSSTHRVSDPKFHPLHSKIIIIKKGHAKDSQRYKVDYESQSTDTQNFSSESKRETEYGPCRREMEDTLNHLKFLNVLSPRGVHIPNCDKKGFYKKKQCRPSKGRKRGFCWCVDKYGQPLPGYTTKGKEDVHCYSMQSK

The first assay has as its target T2, recombinant human IGFBP-3 (human, UniProt P17936 28-291). As to the kind of experiment: phage ELISA (IGF-blocking phage assay): g8 peptide-phage on an IGFBP-3-coated plate, without and with IGF-1; OD492. As for the experimental part: The plates were then washed ten times, as above, and a solution of rabbit anti-phage antibody mixed with a goat-anti-rabbit conjugate of horseradish peroxidase was added. After an incubation of 1 hour at room temperature, the plates were developed with a chromogenic substrate, o-phenylenediamine (Sigma). The reaction was stopped with addition of ½ volume of 2.5 M H₂SO₄. Optical density at 490 nm was measured on a spectrophotometric plate reader.
In each case, the phagemid clone was grown from a single colony overnight at 37° C. in a culture volume of 5 ml. The phage particles were prepared as described above.
Background: In an ELISA, binding on a coated surface is turned into a signal by an enzyme label.
B1: the binding result is listed as “binds”.

The next assay deals with T1, human IGFBP-1. As to the kind of experiment: BIAcore inhibition assay. As for the experimental part: Peptides were assayed in a BIAcore™ assay as described in WO 98/45427, supra.
For orientation: SPR reads the build-up and loss of mass on a sensor chip optically.
On to Ac-RPLEWLAEKYFE (linker 4-12 via 1,5‑diaminopentane) [(i+8)B], for which the “fold potency reduction, IC50 (BP1-01)/IC50 (mut)” value came to 7.7. Still for that read-out and setting: with Ac-RAGPLEWLAEKYFE (linker 6-14 via 1,5‑diaminopentane) [(i+8)C] the figure was 5.9; with Ac-CRAGPLQELCEKYAE (disulfide 1-10 (inferred); linker 8-15 via 1,5‑diaminopentane) [(i+7)A], 40; with Ac-RAGPLEWLAEKYEG (linker 6-13 via 1,5‑diaminopentane) [(i+7)D], 7.7. The same measure, in the same setting: the figure for Ac-PLEWLAEKYEG (linker 3-10 via 1,5‑diaminopentane) [(i+7)C] is 20.

Another assay concerns the target T1, human IGFBP-1. As to the kind of experiment: BIAcore kinetics, IGFBP-1 coupled to chip. As for the experimental part:
For each dilution of peptides, a global fit of the sensorgram data was performed using a 1:1 Langmuir binding model.
The molecule B2 registered a Kd of 33 nM.

Another assay addresses T2, recombinant human IGFBP-3. As to the kind of experiment: BIAcore competition, IGFBP-3 to immobilized IGF-1. As for the experimental part: IGF-1 was immobilized on a dextran chip for inhibition assays using a BIACORE™ 2000 surface-plasmon-resonance device (BIAcore, Inc., Piscataway, N.J.) to measure free binding protein. IGF-1 was biotinylated as described above, and injected over a chip to which streptavidin had been coupled (BIAcore, Inc.) to give 400 to 800 RU (response units) of immobilized IGF-1. […] After incubation for >1 hour at room temperature, an aliquot of 20:L was injected at a flow rate of 20:L/min over the IGF-1 chip. […]
For AWEVCWDRHQGYICTTDS (disulfide 5-14) [BP3-4D3.11DEL], the IC50 was found to be 80 µM. Same read-out and setting: with VAWEVCWDRHDQGYICTTDS (disulfide 6-16) [BP3-4D3.11] the figure was under 10 µM; with VCWPVAEWYLCNMWG (disulfide 2-11) [BP3-16], 30 µM.

Regarding TGVDCQCGPVHCVCMDWA (disulfide 7-12; disulfide 5-14 (inferred)) [BP3-06], the IC50 was determined as 5 µM.

Turning to EESECFEGPGYVICGLVG (disulfide 5-14) [BP3-4B3.3], the IC50 is 80 µM. Same read-out and setting: the figure for B3 is 100 to 300 µM; for DMGVCADGPWMYVCEWTE (disulfide 5-14) [BP3-02-ox] it is 12 µM; for TVANCDCYMPLCLCYDSD (disulfide 7-12; disulfide 5-14 (inferred)) [BP3-08] it is 15 µM.

For the molecule B4, the IC50 stood at 220 µM.

A further assay has as its target T2, recombinant human IGFBP-3. Briefly: BIAcore competition, IGFBP-3 to IGF-1. The method, then: IGF-1 was immobilized on a dextran chip for inhibition assays using a BIACORE™ 2000 surface-plasmon-resonance device (BIAcore, Inc., Piscataway, N.J.) to measure free binding protein. IGF-1 was biotinylated as described above, and injected over a chip to which streptavidin had been coupled (BIAcore, Inc.) to give 400 to 800 RU (response units) of immobilized IGF-1. […] After incubation for >1 hour at room temperature, an aliquot of 20:L was injected at a flow rate of 20:L/min over the IGF-1 chip.
Consider EEVCWPVAEWYLCN (disulfide 4-13) [BP3-28], for which the IC50 was 5.4 µM.

In the case of B5, the IC50 was 0.66 µM.

Consider WPVAEWYLCN (only one Cys, no intact disulfide) [BP3-24], for which the IC50 was over 1000 µM.

GPETCWPVAEWYLCN (disulfide 5-14) [BP3-41]: the IC50 came out at 4 µM.

Take ASEEVCWPVAEWYLCN (disulfide 6-15) [BP3-30]: the IC50 was 5.6 µM. Same read-out and setting: with CWPVAEWYLCN (disulfide 1-10) [BP3-25] the figure was 46 µM; with ASEEVCWPVAEWYLCNMWGR (disulfide 6-15) [4D3.3P], 5.6 µM. Same read-out and setting: the figure for EVCWPVAEWYLCN (disulfide 3-12) [BP3-27] is 2.8 µM.

Take B6: the IC50 stood at 0.66 µM.
